Here are results for one protein from article PMC2968749 (Journal of immunology (Baltimore, Md. : 1950), 2009).

This series deals with the molecule itself. The series is described as follows: nonreducing SDS-PAGE + mass spectrometry of the band.

B1: native Bet v 1d in aqueous birch pollen extract (BPE) (natural protein, UniProt P43177 1-160, looked up)
chain: MGVFNYEIETTSVIPAARLFKAFILDGDNLVPKVAPQAISSVENIEGNGGPGTIKKINFPEGFPFKYVKDRVDEVDHTNFKYNYSVIEGGPVGDTLEKISNEIKIVATPDGGCVLKISNKYHTKGNHEVKAEQVKASKEMGETLLRAVESYLLAHSDAYN
For orientation: stoichiometry N means a count of units in the complex or per binding partner. With B1, the “stoichiometry N” value was 2.
